{
  "source": "patent US20200040059A1",
  "key": {"[1]": {"target": "T1, CD226 (human) (UniProt Q15762)", "T1 sequence": "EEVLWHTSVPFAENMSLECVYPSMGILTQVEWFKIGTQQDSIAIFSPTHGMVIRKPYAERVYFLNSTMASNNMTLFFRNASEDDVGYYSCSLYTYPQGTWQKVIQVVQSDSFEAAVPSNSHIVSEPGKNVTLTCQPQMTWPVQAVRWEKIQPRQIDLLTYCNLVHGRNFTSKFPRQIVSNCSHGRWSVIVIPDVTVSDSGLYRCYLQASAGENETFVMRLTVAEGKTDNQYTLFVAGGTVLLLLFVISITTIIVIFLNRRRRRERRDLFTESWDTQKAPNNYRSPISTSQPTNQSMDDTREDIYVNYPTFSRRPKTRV", "assay": "flow cytometry, CD226-expressing cells"}, "[2]": {"target": "T2, CD96 (UniProt P40200)", "T2 sequence (looked up)": "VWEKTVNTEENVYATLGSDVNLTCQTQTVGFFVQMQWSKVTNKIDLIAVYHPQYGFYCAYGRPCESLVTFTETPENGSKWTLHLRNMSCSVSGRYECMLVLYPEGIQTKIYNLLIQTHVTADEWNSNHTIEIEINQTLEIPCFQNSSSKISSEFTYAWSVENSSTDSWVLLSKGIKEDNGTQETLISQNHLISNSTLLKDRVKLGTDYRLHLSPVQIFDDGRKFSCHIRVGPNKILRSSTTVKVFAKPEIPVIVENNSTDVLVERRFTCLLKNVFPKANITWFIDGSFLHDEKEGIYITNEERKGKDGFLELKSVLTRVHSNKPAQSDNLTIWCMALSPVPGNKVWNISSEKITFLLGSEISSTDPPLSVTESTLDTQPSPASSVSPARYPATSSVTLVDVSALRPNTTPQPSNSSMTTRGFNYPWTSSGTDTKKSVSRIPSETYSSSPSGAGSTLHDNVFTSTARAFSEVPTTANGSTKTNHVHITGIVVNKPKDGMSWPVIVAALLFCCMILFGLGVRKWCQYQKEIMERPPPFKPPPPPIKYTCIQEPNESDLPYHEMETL", "assay": "flow cytometry, CD96-expressing cells"}, "[3]": {"target": "PD-L1 (human) (UniProt Q9NZQ7)", "sequence (Q9NZQ7 19-290 limits assumed)": "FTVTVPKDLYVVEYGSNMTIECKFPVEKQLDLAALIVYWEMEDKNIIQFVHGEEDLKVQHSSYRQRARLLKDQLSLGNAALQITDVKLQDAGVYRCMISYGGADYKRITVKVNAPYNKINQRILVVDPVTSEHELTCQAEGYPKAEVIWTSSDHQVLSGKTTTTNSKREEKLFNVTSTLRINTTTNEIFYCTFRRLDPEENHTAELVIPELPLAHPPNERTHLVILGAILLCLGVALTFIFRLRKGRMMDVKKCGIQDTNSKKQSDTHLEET", "assay": "flow cytometry, transfected cells"}, "[4]": {"target": "CD28 (human) (UniProt P10747)", "assay": "flow cytometry, transfected cells"}, "[5]": {"target": "human B7-H6 (human) (UniProt Q68D85)", "sequence (Q68D85 25-454)": "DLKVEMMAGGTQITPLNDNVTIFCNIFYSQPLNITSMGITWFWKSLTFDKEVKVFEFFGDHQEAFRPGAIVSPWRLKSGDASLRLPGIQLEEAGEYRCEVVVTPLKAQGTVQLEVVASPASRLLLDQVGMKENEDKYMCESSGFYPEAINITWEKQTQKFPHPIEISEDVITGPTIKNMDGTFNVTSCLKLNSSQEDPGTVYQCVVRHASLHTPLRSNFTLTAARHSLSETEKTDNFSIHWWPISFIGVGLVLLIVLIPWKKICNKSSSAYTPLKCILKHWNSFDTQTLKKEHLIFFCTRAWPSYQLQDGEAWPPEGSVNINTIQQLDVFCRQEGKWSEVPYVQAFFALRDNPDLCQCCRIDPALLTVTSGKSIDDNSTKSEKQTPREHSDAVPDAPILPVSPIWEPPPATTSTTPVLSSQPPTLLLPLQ", "assay": "flow cytometry, transfected cells"}, "[6]": {"target": "PD-1 on Jurkat/PD-1 cells", "assay": "flow cytometry, 50 nM; ratio to wild type PD-L1 IgV-Fc"}, "[7]": {"target": "PD-1 on Jurkat/PD-1 cells", "assay": "flow cytometry on Jurkat/PD-1 cells, 50 nM"}, "[8]": {"target": "human ICOS as used for the 'ICOS OD' read-out of Table 14 (human)", "sequence (Q9Y6W8 whole entry)": "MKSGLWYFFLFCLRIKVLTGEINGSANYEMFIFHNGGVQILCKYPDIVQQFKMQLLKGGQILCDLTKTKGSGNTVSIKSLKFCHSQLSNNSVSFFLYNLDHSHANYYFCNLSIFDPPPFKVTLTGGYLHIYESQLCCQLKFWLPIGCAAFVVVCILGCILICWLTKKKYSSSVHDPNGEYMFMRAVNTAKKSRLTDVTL", "assay": "binding read as OD; format not described"}, "[9]": {"target": "human CD28, full-length, expressed on transfected Expi293 cells (human) (UniProt P10747)", "assay": "flow cytometry on CD28-expressing Expi293 cells"}, "[10]": {"target": "human B7-H6, full-length, expressed on transfected Expi293 cells (human) (UniProt Q68D85)", "sequence (Q68D85 25-454)": "as the sequence (Q68D85 25-454) above", "assay": "flow cytometry on B7-H6-expressing Expi293 cells"}, "[11]": {"target": "PD-1 (Homo sapiens (Human)) (UniProt Q15116)", "sequence (Q15116 21-288 limits assumed, form in doubt)": "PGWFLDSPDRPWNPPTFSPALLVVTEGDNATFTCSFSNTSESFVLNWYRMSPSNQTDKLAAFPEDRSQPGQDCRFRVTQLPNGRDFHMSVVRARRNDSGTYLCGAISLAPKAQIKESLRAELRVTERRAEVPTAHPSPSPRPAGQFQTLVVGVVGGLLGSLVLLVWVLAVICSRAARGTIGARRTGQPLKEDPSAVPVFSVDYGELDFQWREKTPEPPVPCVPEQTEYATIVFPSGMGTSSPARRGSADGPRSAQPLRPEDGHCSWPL", "assay": "flow cytometry, Jurkat/PD-1 cells"}, "[12]": {"target": "PD-1-Fc", "assay": "Fortebio (BLI), PD-1-Fc"}},
  "data": [
    {"substance": "CD155 variant IgV-Fc V9L, P18T, Q62R, L79P, F91S, L104M, G111R (from UniProt P15151 24-139) (Fc fusion)", "values": [
      {"measurement": "MFI at 11.1 nM", "setting": "[1]", "result": 835, "unit": "MFI"},
      {"measurement": "MFI at 11.1 nM", "setting": "[2]", "result": 1500, "unit": "MFI"}
    ]},
    {"substance": "Domain 1: CD80 WT / Domain 2: CD86 WT / Fc (Fc fusion)", "values": [
      {"measurement": "MFI", "setting": "[3]", "result": 2080},
      {"measurement": "MFI", "setting": "[4]", "result": 60300}
    ]},
    {"substance": "Domain 1: CD86 WT / Domain 2: CD80 WT / Fc (Fc fusion)", "values": [
      {"measurement": "MFI", "setting": "[3]", "result": 1520},
      {"measurement": "MFI", "setting": "[4]", "result": 4950}
    ]},
    {"substance": "Domain 1: CD86 WT / Domain 2: Nkp30 WT / Fc (Fc fusion)", "values": [
      {"measurement": "MFI", "setting": "[5]", "result": 129000}
    ]},
    {"substance": "Full length PD-L1 Fc (from UniProt Q9NZQ7 19-239) (Fc fusion)", "values": [
      {"measurement": "Fold increase over wildtype PD-L1 IgV-Fc", "setting": "[6]", "result": 3.5, "unit": "fold"},
      {"measurement": "MFI at 50 nM", "setting": "[7]", "result": 18500}
    ]},
    {"substance": "ICOSL variant N52S/S54P ECD-Fc fusion", "values": [
      {"measurement": "ICOS OD", "setting": "[8]", "result": 1.5, "unit": "OD"}
    ]},
    {"substance": "ICOSL variant N52S/Y152H ECD-Fc fusion", "values": [
      {"measurement": "ICOS OD", "setting": "[8]", "result": 0.85, "unit": "OD"},
      {"measurement": "ICOS OD parental ratio (ratio to WT ICOSL ECD-Fc)", "setting": "[8]", "result": 0.99},
      {"measurement": "MFI", "setting": "[9]", "result": 68, "unit": "MFI"},
      {"measurement": "MFI parental ratio (ratio to WT ICOSL ECD-Fc)", "setting": "[9]", "result": 3.78}
    ]},
    {"substance": "PD-L1 IgV A33D, S75P Fc fusion (SEQ ID NO 1310)", "values": [
      {"measurement": "Fold increase over wildtype PD-L1 IgV-Fc", "setting": "[6]", "result": 0.3, "unit": "fold"},
      {"measurement": "MFI at 50 nM", "setting": "[7]", "result": 1790}
    ]},
    {"substance": "PD-L1 IgV A33D, S75P, D104G Fc fusion", "values": [
      {"measurement": "Fold increase over wildtype PD-L1 IgV-Fc", "setting": "[6]", "result": 0, "unit": "fold"},
      {"measurement": "MFI at 50 nM", "setting": "[7]", "result": 251}
    ]},
    {"substance": "PD-L1 IgV I20L, A33D, D43G, N45D, V58A, N78I Fc fusion", "values": [
      {"measurement": "Fold increase over wildtype PD-L1 IgV-Fc", "setting": "[6]", "result": 15.3, "unit": "fold"},
      {"measurement": "MFI at 50 nM", "setting": "[7]", "result": 80200}
    ]},
    {"substance": "PD-L1 IgV I20L, D43G, N45D, N78I Fc fusion", "values": [
      {"measurement": "Fold increase over wildtype PD-L1 IgV-Fc", "setting": "[6]", "result": 12.8, "unit": "fold"},
      {"measurement": "MFI at 50 nM", "setting": "[7]", "result": 67000}
    ]},
    {"substance": "PD-L1 IgV I20L, D43G, N45D, V58A, N78I Fc fusion", "values": [
      {"measurement": "Fold increase over wildtype PD-L1 IgV-Fc", "setting": "[6]", "result": 13.9, "unit": "fold"},
      {"measurement": "MFI at 50 nM", "setting": "[7]", "result": 72700}
    ]},
    {"substance": "PD-L1 IgV I20L, E27G, D43G, N45D, V58A, N78I Fc fusion", "values": [
      {"measurement": "Fold increase over wildtype PD-L1 IgV-Fc", "setting": "[6]", "result": 13.3, "unit": "fold"},
      {"measurement": "MFI at 50 nM", "setting": "[7]", "result": 69500}
    ]},
    {"substance": "PD-L1 IgV I20L, E27G, N45T, V50A Fc fusion", "values": [
      {"measurement": "Fold increase over wildtype PD-L1 IgV-Fc", "setting": "[6]", "result": 5.7, "unit": "fold"},
      {"measurement": "MFI at 50 nM", "setting": "[7]", "result": 29800}
    ]},
    {"substance": "stacked Fc fusion, Domain 1: NKp30 WT / Domain 2: ICOSL WT", "values": [
      {"measurement": "MFI", "setting": "[10]", "result": 64500, "unit": "MFI"},
      {"measurement": "MFI", "setting": "[9]", "result": 6340, "unit": "MFI"}
    ]},
    {"substance": "variant PD-L2 IgV-Fc E44D, V89D, W91R (Fc fusion)", "values": [
      {"measurement": "MFI at 50 nM", "setting": "[11]", "result": 614}
    ]},
    {"substance": "variant PD-L2 IgV-Fc H15Q, C23S, I86T (Fc fusion)", "values": [
      {"measurement": "MFI at 50 nM", "setting": "[11]", "result": 830}
    ]},
    {"substance": "variant PD-L2 IgV-Fc H15Q, N24S, T47A, Q72H, R76G, V89D (Fc fusion)", "values": [
      {"measurement": "MFI at 50 nM", "setting": "[11]", "result": 32100},
      {"measurement": "Fortebio binding to PD-1-Fc Response Units (Response Units)", "setting": "[12]", "result": 0.4}
    ]},
    {"substance": "variant PD-L2 IgV-Fc H15Q, Q82R, V89D (Fc fusion)", "values": [
      {"measurement": "MFI at 50 nM", "setting": "[11]", "result": 49700},
      {"measurement": "Fortebio binding to PD-1-Fc Response Units (Response Units)", "setting": "[12]", "result": 1.2}
    ]},
    {"substance": "variant PD-L2 IgV-Fc H15Q, S67L, I86T (Fc fusion)", "values": [
      {"measurement": "MFI at 50 nM", "setting": "[11]", "result": 16000}
    ]},
    {"substance": "variant PD-L2 IgV-Fc I13V, H15Q, E44V, T47A, Q82R, V89D (Fc fusion)", "values": [
      {"measurement": "MFI at 50 nM", "setting": "[11]", "result": 61000}
    ]},
    {"substance": "variant PD-L2 IgV-Fc I13V, H15Q, T37A, E44D, S48C, S67L, Q82R, V89D (Fc fusion)", "values": [
      {"measurement": "MFI at 50 nM", "setting": "[11]", "result": 47600},
      {"measurement": "Fortebio binding to PD-1-Fc Response Units (Response Units)", "setting": "[12]", "result": 1.25}
    ]},
    {"substance": "variant PD-L2 IgV-Fc I13V, H15Q, T47A, R76G, V89D (Fc fusion)", "values": [
      {"measurement": "MFI at 50 nM", "setting": "[11]", "result": 53700},
      {"measurement": "Fortebio binding to PD-1-Fc Response Units (Response Units)", "setting": "[12]", "result": 1.6}
    ]}
  ]
}
